This passage reports Kd and molecules bound per cell (molecules per cell) results from patent publication US6933132.

Test [1] deals with surface of a PHA-activated T cell (unidentified binding site for soluble attractin-1). The experiment in a line: Scatchard analysis, 125I-labeled soluble attractin on cells, 1 hr at 4 C.
In test [2] the target is surface of a resting T cell (unidentified binding site for soluble attractin-1). The description is as above.

Turning to “purified natural serum soluble attractin-1, 125I-labeled (from UniProt O75882 1-1267) (ligand)”, in test [1], the Kd – broadly, the constant that tells how readily two partners part at equilibrium – lay in the range of 5 to 50 pM and the molecules bound per cell (molecules per cell) worked out at 2000. In test [2], this substance had a Kd of 5 to 50 pM and a molecules bound per cell (molecules per cell) of 1000.
